Among the data in patent US20040018561A1, “Peptide compounds and their use as protease substrates” (priority 2002, published 2004) are Km and kcat/Km values, retold here.

Holding throughout (conditions): other: substrate cleavage by MMP-9
Substrate in data set [1]: COc1ccc2c(CC(=O)N[C@@H](CCCNC(=N)N)C(=O)N3CCCC3C(=O)N[C@@H](CC(C)C)C(=O)NCC(=O)N[C@@H](CC(C)C)C(=O)N[C@H](CNc3ccc([N+](=O)[O-])cc3[N+](=O)[O-])C(=O)N[C@@H](C)C(=O)N[C@H](CCCNC(=N)N)C(=O)N[C@@H](CCC(=O)O)C(=O)N[C@H](CCCNC(=N)N)C(N)=O)cc(=O)oc2c1
The experiment in a line: purified protein, by the assay type.

Substrate in data set [2]: COc1ccc2c(CC(=O)N[C@@H](CCCNC(=N)N)C(=O)N3CCC[C@@H]3C(=O)N[C@@H](CC(C)C)C(=O)NCC(=O)N[C@@H](CC(C)C)C(=O)N[C@H](CNc3ccc([N+](=O)[O-])cc3[N+](=O)[O-])C(=O)N[C@@H](C)C(=O)N[C@H](CCCNC(=N)N)C(=O)N[C@@H](CCC(=O)O)C(=O)N[C@H](CCCNC(=N)N)C(N)=O)cc(=O)oc2c1
The experiment in a line: purified protein, by the assay type.

Substrate in data set [3]: COc1ccc2c(CC(=O)N[C@@H](CCCNC(=N)N)C(=O)N3CCCC3C(=O)N[C@@H](CC(C)C)C(=O)NCC(=O)N[C@@H](CC(C)C)C(=O)N[C@H](CNc3ccc([N+](=O)[O-])cc3[N+](=O)[O-])C(=O)N[C@@H](C)C(=O)N[C@H](CCCNC(=N)N)C(=O)N[C@@H](CCC(=O)O)C(=O)N[C@H](CCCNC(=N)N)C(N)=O)cc(=O)oc2c1
The experiment in a line: Km and kcat/Km of substrates with MMP-9. It is filed as biochemical.

Substrate in data set [4]: COc1ccc2c(CC(=O)N[C@@H](CCCNC(=N)N)C(=O)N3CCC[C@H]3C(=O)N[C@@H](CC(C)C)C(=O)NCC(=O)N[C@@H](CCCCOCc3ccccc3)C(=O)N[C@@H](CNc3ccc([N+](=O)[O-])cc3[N+](=O)[O-])C(=O)N[C@@H](C)C(=O)N[C@@H](CCCNC(=N)N)C(=O)N[C@@H](CCC(=O)O)C(=O)N[C@@H](CCCNC(=N)N)C(N)=O)cc(=O)oc2c1
Nature of the data set: Km and kcat/Km of substrates with MMP-9. It is filed as biochemical.

Substrate in data set [5]: COc1ccc2c(CC(=O)N[C@H](CCCNC(=N)N)C(=O)N3CCC[C@H]3C(=O)N[C@@H](CC(C)C)C(=O)NCC(=O)N[C@@H](CCCCOCc3ccccc3)C(=O)N[C@@H](CNc3ccc([N+](=O)[O-])cc3[N+](=O)[O-])C(=O)N[C@@H](C)C(=O)N[C@H](CCCNC(=N)N)C(=O)N[C@H](CCC(=O)O)C(=O)N[C@H](CCCNC(=N)N)C(N)=O)cc(=O)oc2c1
The experiment in a line: Km and kcat/Km of substrates with MMP-9. The class given is biochemical.

Substrate in data set [6]: COc1ccc2c(CC(=O)N[C@H](CCCNC(=N)N)C(=O)N3CCC[C@H]3C(=O)N[C@@H](CC(C)C)C(=O)NCC(=O)N[C@@H](CCCCOc3ccccc3)C(=O)N[C@@H](CNc3ccc([N+](=O)[O-])cc3[N+](=O)[O-])C(=O)N[C@@H](C)C(=O)N[C@H](CCCNC(=N)N)C(=O)N[C@H](CCC(=O)O)C(=O)N[C@H](CCCNC(=N)N)C(N)=O)cc(=O)oc2c1
Nature of the data set: Km and kcat/Km of substrates with MMP-9. The class given is biochemical.

B1: MMP-9 (Homo sapiens) (protein)
chain: MRTPRCGVPDLGRFQTFEGDLKWHHHNITYWIQNYSEDLPRAVIDDAFARAFALWSAVTPLTFTRVYSRDADIVIQFGVAEHGDGYPFDGKDGLLAHAFPPGPGIQGDAHFDDDELWSLGKGVVVPTRFGNADGAACHFPFIFEGRSYSACTTDGRSDGLPWCSTTANYDTDDRFGFCPSERLYTQDGNADGKPCQFPFIFQGQSYSACTTDGRSDGYRWCATTANYDRDKLFGFCPTRADSTVMGGNSAGELCVFPFTFLGKEYSTCTSEGRGDGRLWCATTSNFDSDKKWGFCPDQGYSLFLVAAHEFGHALGLDHSSVPEALMYPMYRFTEGPPLHKDDVNGIRHLYGPRPEPEPRPPTTTTPQPTAPPTVCPTGPPTVHPSERPTAGPTGPPSAGPTGPPTAGPSTATTVPLSPVDDACNVNIFDAIAEIGNQLYLFKDGKYWRFSEGRGSRPQGPFLIADKWPALPRKLDSVFEERLSKKLFFFSGRQVWVYTGASVLGPRRLDKLGLGADVAQVTGALRSGRGKMLLFSGRRLWRFDVKAQMVDPRSASEVDRMFPGVPLDTHDVFQYREKAYFCQDRFYWRVSSRSELNQVDQVGYVTYDILQCPED
B1: the Km (as a rule, the concentration of substrate that gives half-maximal velocity) in data set [1] is 8.2 µM; in data set [2] it was 6.4 µM; in data set [3] it was 6.2 µM; in data set [4], 2.3 µM; in data set [5], 3.3 µM; in data set [6], 1.4 µM. Moreover, the kcat/Km was 133 M^−1s^−1×10^4 in data set [1]; 41.8 M^−1s^−1×10^4 in data set [2]; 129 M^−1s^−1×10^4 in data set [3]; 147 M^−1s^−1×10^4 in data set [4]; 31.9 M^−1s^−1×10^4 in data set [5]; 191 M^−1s^−1×10^4 in data set [6].
